Data: publication doi:10.1101/2023.03.19.533240

Molecular target: MBP-DDX3X WT (UniProt O00571 1-662)
Assay: time-resolved fluorescence anisotropy

Chain of MBP-DDX3X WT (O00571 whole entry): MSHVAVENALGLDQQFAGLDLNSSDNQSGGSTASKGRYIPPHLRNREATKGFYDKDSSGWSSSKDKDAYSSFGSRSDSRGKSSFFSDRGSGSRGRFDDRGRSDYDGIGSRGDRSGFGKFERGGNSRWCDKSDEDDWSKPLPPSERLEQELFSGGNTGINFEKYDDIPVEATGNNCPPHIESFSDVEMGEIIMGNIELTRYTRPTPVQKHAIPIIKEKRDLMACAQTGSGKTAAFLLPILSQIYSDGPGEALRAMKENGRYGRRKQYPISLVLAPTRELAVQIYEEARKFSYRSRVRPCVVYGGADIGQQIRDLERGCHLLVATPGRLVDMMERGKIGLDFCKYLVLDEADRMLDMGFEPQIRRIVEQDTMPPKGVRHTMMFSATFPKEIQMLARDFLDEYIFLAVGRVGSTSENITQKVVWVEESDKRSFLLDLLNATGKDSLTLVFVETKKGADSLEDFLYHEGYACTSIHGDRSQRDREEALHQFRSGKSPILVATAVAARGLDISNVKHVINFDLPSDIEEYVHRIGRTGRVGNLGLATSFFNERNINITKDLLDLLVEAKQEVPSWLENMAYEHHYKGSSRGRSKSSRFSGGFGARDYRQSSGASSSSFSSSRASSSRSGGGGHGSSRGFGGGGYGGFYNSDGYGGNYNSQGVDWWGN

Q: Does UUUUUUUUUUUUUUUUUUUUUUUUCGGAGCGACGGCAGCGGU (ssRNA) [long strand 42-mer ssRNA] bind?
A: Result: binds
